Laboratory results from the supplement of paper PMC10126150.
± gives the standard deviation of the averaged measurements.

test system: ATP; test: switch fluorescence ratio, 500 uM ATP over buffer (Cy3 cluster intensity, sum of 5 cycles each) (fold (ratio)); higher = stronger signal-on switching upon ATP binding; sequences stand for … in TCGTCGGCAGCGTCAGATGTGTATAAGAGACAGTTTTTTTTTTTTTTTTTTTTTTTTT…TC; details: aptamer strand: ATP DNA aptamer (quencher-CACCTGGGGGAGTATTGCGGAGGAAGG + anchor), 100 nM annealed; ATP concentration: 500 uM
Method in brief: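 Cy3-labelled switching-strand clusters on a modified Illumina MiSeq flow-cell were annealed to 100 nM quencher-labelled ATP aptamer and imaged first in selection buffer, then after 15 min with 500 uM ATP at 22 °C. NaOH stripping and re-annealing separated each of five buffer/ATP cycles, and clusters outside 100-1000 RFU were excluded. The fluorescence ratio sums target-cycle Cy3 intensity over buffer-cycle Cy3 intensity per cluster and averages it per switch-domain sequence.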
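Further: ATP exposure 15 min at 22 °C before imaging.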

Sequence	switch fluorescence ratio
ATAATTGTTC	0.99 ± 0.031
ATAATTTGCG	0.9814 ± 0.0073
ATACAAATTA	1.01 ± 0.027
ATACCTGAGC	1.113 ± 0.0041
ATACCTTA	1.02 ± 0.038
ATACGAACGG	1.48 ± 0.015
ATACGAAGGA	1 ± 0.028
ATACGGGGTG	1.1 ± 0.035
ATACTATCTT	0.996 ± 0.019
ATACTATTGT	1.029 ± 0.0037
ATACTCGGTA	0.997 ± 0.023
ATACTGACAT	1.2 ± 0.053
ATACTTTGCT	1 ± 0.034
ATAGAACTAG	1 ± 0.011
ATAGAAGAG	0.978 ± 0.017
ATAGAATGGG	0.9928 ± 0.0072
ATAGACGTGT	1.02 ± 0.092
ATAGAGAAGC	1.03 ± 0.025
ATAGAGCCTA	1.03 ± 0.02
ATAGAGGAGT	0.998 ± 0.032
ATAGAGGTAG	0.976 ± 0.017
ATAGAGGTGG	0.9979 ± 0.0022
ATAGATAACG	1 ± 0.035
ATAGATAGGT	0.99 ± 0.034
ATAGATAGTG	0.959 ± 0.015

Sequence	switch fluorescence ratio
ATAGATCTGA	1.03 ± 0.084
ATAGATGGGG	1.01 ± 0.018
ATAGCAAAAT	1.07 ± 0.13
ATAGCAGATG	0.991 ± 0.046
ATAGCAGGGG	1.11 ± 0.082
ATAGCAGTCG	1.04 ± 0.077
ATAGCAGTTT	1.02 ± 0.013
ATAGCCTGGT	0.978 ± 0.018
ATAGCTTTGA	1.02 ± 0.0014
ATAGGAAATA	1.06 ± 0.035
ATAGGAACGC	0.995 ± 0.026
ATAGGAAGGG	0.996 ± 0.019
ATAGGACTGA	1.03 ± 0.023
ATAGGAGAGC	1.044 ± 0.0021
ATAGGAGCGT	0.979 ± 0.038
ATAGGAGGGA	1.01 ± 0.017
ATAGGAGGTC	1.01 ± 0.013
ATAGGATGCC	0.999 ± 0.019
ATAGGCGAAA	0.986 ± 0.022
ATAGGCGCGC	1.04 ± 0.014
ATAGGCGTTT	0.975 ± 0.018
ATAGGGACAG	1.012 ± 0.0078
ATAGGGAGTG	0.996 ± 0.043
ATAGGGCGGC	1.012 ± 0.0038
ATAGGGCTGG	0.968 ± 0.024

Sequence	switch fluorescence ratio
ATAGGGGAAG	1.01 ± 0.033
ATAGGGGGTC	0.988 ± 0.047
ATAGGGGGTG	1.03 ± 0.034
ATAGGGGTGT	1.01 ± 0.062
ATAGGGTACG	1.06 ± 0.022
ATAGGGTCGT	0.998 ± 0.011
ATAGGGTGAT	1.03 ± 0.021
ATAGGGTTGG	0.996 ± 0.049
ATAGGTAGCG	1.01 ± 0.023
ATAGGTCAGG	1.026 ± 0.0022
ATAGGTCTTC	0.983 ± 0.059
ATAGGTGCTT	1.131 ± 0.01
ATAGGTGTGG	1.02 ± 0.035
ATAGGTTACG	1.21 ± 0.25
ATAGGTTAGA	1.06 ± 0.14
ATAGGTTCGG	0.968 ± 0.021
ATAGGTTGGG	0.996 ± 0.03
ATAGTAACCG	0.997 ± 0.083
ATAGTACGTG	1.01 ± 0.024
ATAGTAGGCT	0.994 ± 0.011
ATAGTCGGGC	0.99 ± 0.022
ATAGTGATCG	0.994 ± 0.042
ATAGTGGAGG	1.01 ± 0.025
ATAGTGGTGG	1.01 ± 0.052
ATAGTTATCT	1.03 ± 0.026

Sequence	switch fluorescence ratio
ATAGTTCAGC	0.9822 ± 0.0058
ATAGTTGAGG	0.981 ± 0.02
ATAGTTTACT	1.01 ± 0.024
ATAGTTTGAG	1.01 ± 0.018
ATAGTTTGCC	0.994 ± 0.043
ATAGTTTGGA	0.947 ± 0.017
ATATAATAGT	0.991 ± 0.015
ATATAATCAA	0.98075 ± 0.00037
ATATACGGGG	1.04 ± 0.02
ATATAGAGTT	1.02 ± 0.082
ATATAGGCTG	1.01 ± 0.018
ATATAGGGAT	1.021 ± 0.007
ATATAGGGTG	1.09 ± 0.019
ATATAGTCCT	0.9714 ± 0.0023
ATATAGTTTT	0.953 ± 0.011
ATATATAGTC	1.02 ± 0.025
ATATATATAT	1.01 ± 0.012
ATATATCGTT	0.981 ± 0.024
ATATATGGCT	0.999 ± 0.035
ATATATTTCG	1.01 ± 0.017
ATATCACGCT	1.03 ± 0.023
ATATCAGACT	0.99 ± 0.015
ATATCAGCGC	1.03 ± 0.018
ATATCATCTC	1.002 ± 0.0063
ATATCCCCCA	1.15 ± 0.11

Sequence	switch fluorescence ratio
ATATCCCTGG	1.11 ± 0.013
ATATCCGTTT	0.974 ± 0.066
ATATCGTTCG	1.02 ± 0.054
ATATCTATAG	0.958 ± 0.018
ATATCTGAGT	1.03 ± 0.016
ATATCTTTCT	1.006 ± 0.0023
ATATCTTTTT	0.983 ± 0.037
ATATGAAAAT	1.01 ± 0.032
ATATGAAGAA	0.968 ± 0.01
ATATGACGCT	1.04 ± 0.09
ATATGCGGGG	0.949 ± 0.011
ATATGGCCGT	0.994 ± 0.023
ATATGGGCGG	0.98 ± 0.016
ATATGGGGGA	0.99 ± 0.038
ATATGGTAAA	0.958 ± 0.015
ATATGTAGAG	1.05 ± 0.046
ATATGTCGGT	0.963 ± 0.013
ATATGTCTAG	0.989 ± 0.01
ATATTAAAAT	1.02 ± 0.021
ATATTAAGGC	0.983 ± 0.017
ATATTAGGTT	0.998 ± 0.018
ATATTGACCG	1.03 ± 0.022
ATATTGATAG	1 ± 0.0064
ATATTGGGCC	0.997 ± 0.017
ATATTGTACG	1.03 ± 0.022

Sequence	switch fluorescence ratio
ATATTGTAGT	0.9969 ± 0.0089
ATATTGTGGG	0.987 ± 0.023
ATATTGTGTG	1.01 ± 0.048
ATATTTATCG	1.01 ± 0.033
ATATTTATTT	1.015 ± 0.009
ATATTTCATG	1.006 ± 0.0091
ATATTTCTAA	1.0113 ± 0.00013
ATATTTCTGG	0.986 ± 0.018
ATATTTCTGT	0.981 ± 0.019
ATATTTGCGA	0.973 ± 0.022
ATATTTTAGT	1.03 ± 0.031
ATATTTTATT	1.02 ± 0.031
ATATTTTCGC	1.04 ± 0.03
ATATTTTTGT	1.03 ± 0.014
ATCAAAGTTT	0.994 ± 0.042
ATCAAATAGT	1.01 ± 0.037
ATCAAGTCGG	0.969 ± 0.02
ATCAAGTGGT	0.9701 ± 0.006
ATCAATATAG	1.03 ± 0.018
ATCAATGACG	0.95 ± 0.059
ATCACGGGGA	1.01 ± 0.032
ATCACGTCGG	1.014 ± 0.0093
ATCACTGGTA	1.03 ± 0.017
ATCAGAATAC	1.74 ± 0.43
ATCAGAGGTA	1.01 ± 0.014

Sequence	switch fluorescence ratio
ATCAGCCGGC	0.99 ± 0.034
ATCAGGGCT	1.01 ± 0.028
ATCAGGGGAG	1 ± 0.018
ATCAGGGGGC	1.03 ± 0.036
ATCAGGGTGT	1.16 ± 0.031
ATCAGGTGCG	1.2924 ± 0.00069
ATCATAATAC	1.406 ± 0.0065
ATCATAATTG	1.005 ± 0.0092
ATCATCGCAG	1.08 ± 0.058
ATCATCTGAA	0.987 ± 0.016
ATCATCTTGT	1.042 ± 0.0015
ATCATGGATG	0.997 ± 0.019
ATCATGTGGC	0.989 ± 0.025
ATCATTGCGG	0.9746 ± 0.0012
ATCATTGCTG	0.949 ± 0.056
ATCATTGGTT	1.01 ± 0.015
ATCATTTATT	1.01 ± 0.042
ATCATTTGGC	0.981 ± 0.068
ATCATTTTAG	0.995 ± 0.01
ATCCACGCTA	1.45 ± 0.022
ATCCAGGTTT	1.1 ± 0.036
ATCCCAATGT	1.14 ± 0.026
ATCCCTTCCA	1.24 ± 0.087
ATCCGGGCGG	1.02 ± 0.071
ATCCGTTGCT	1.01 ± 0.048

Sequence	switch fluorescence ratio
ATCCTGGGGG	1.4 ± 0.7
ATCCTGTAGT	0.999 ± 0.044
ATCCTTGTGT	0.993 ± 0.02
ATCCTTTTGG	1.03 ± 0.094
ATCGAAAGTT	0.99 ± 0.013
ATCGAAGGTC	0.999 ± 0.015
ATCGAATGCT	1.001 ± 0.0096
ATCGACCGGC	1.04 ± 0.071
ATCGACTTGG	1.016 ± 0.0053
ATCGAGAGGC	1.06 ± 0.047
ATCGATCGTT	0.9986 ± 0.0027
ATCGATGGGA	0.987 ± 0.07
ATCGATTTCG	0.975 ± 0.017
ATCGCAGACA	1.04 ± 0.015
ATCGCTAGCT	0.9905 ± 0.0068
ATCGGAATCC	1.19 ± 0.094
ATCGGACGGG	1.02 ± 0.016
ATCGGATTAG	0.995 ± 0.0094
ATCGGCACAT	1.1 ± 0.012
ATCGGCGCGC	0.9957 ± 0.0026
ATCGGGAACT	1.02 ± 0.015
ATCGGGGGAC	0.959 ± 0.021
ATCGGGGGGC	1 ± 0.055
ATCGGGGGGT	1.01 ± 0.035
ATCGGGGGTA	0.982 ± 0.016
